Assays:
[1] = molecular target: the molecule itself; experiment: MG-132, anti-FLAG immunoprecipitation, non-reducing western blot
Method: FLAG-sortilin Full and ECD+TMD forms homodimers and multimers. Empty vector was used as control. […] MG-132 increased FLAG-sortilin ICD+TMD in a time and concentration-dependent manner. […] Monomers, homodimers and multimers are abbreviated as MO, D and MU, respectively. IB, immunoblotting.
Cells or EVs were lysed in IP lysis buffer. Anti-FLAG M2 antibody (5 μg) or mouse IgG (5 lig, R&D Systems, Cat#MAB002, Lot# IX2415091) were incubated with Dynabeads with Protein G (Thermo Fisher Scientific Inc., Cat#10004D) by rotation for overnight at 4° C. Cell lysate was incubated for 4 hours at 4° C. under rotating conditions. The bead-antibody-protein complex was washed with PBS 3 times. Then, Laemmli buffer was added to the precipitates for SDS-PAGE.

[2] = molecular target: the molecule itself; experiment: non-reducing western blot, HEK293 cells and EVs
Excerpt: Next, the intermolecular disulfide bond was examined in the intracellular domain. Since sortilin has only one cysteine (Cys⁷⁸³) in the intracellular domain, the cysteine was expected to form an intermolecular disulfide bond for dimerization in the intracellular domain. Cys⁷⁸³ was replaced by alanine (C783A) in 6×His-sortilin ICD+TMD and FLAG-sortilin Full (FIG. 5A). […] The homodimers of low molecular weight were mainly transported to EVs, while homodimers of high molecular weight and multimers were mainly not transported to EVs (FIG. 5D). […] Since Cys⁷⁸³ was reported to be palmitoylated (22), the connection between palmitoylation and intermolecular disulfide bond was studied by incubating FLAG-sortilin HEK293 cells with an inhibitor of palmitoylation, 2-fluoropalmitic acid (2-FPA) (22), which increased only homodimers of lower molecular size in the cells (FIG. 5E).
Cells, EVs and the supernatant of culture medium were lysed with IP lysis buffer (Thermo Fisher Scientific Inc., Cat#87787) containing protease inhibitor (Roche Diagnostics, Cat#04693159001). Protein concentration was measured using the bicinchoninic acid (BCA) method (Thermo Fisher Scientific Inc., Cat#23225). Laemmli buffer (Boston Bioproduct; non-reducing, Cat#BP-110NR; reducing, Cat#BP-111R) was added to the lysate, and boiled at 95° C. for 5 minutes.

Row | Protein | binding result [1] | binding result [2]
1 | FLAG-sortilin ICD+TMD (receptor, written as the form after propeptide cleavage) SAPDYKDDDDKNSVPIILAIVGLMLVTVVAGVLIVKKYVCGGRFLVHRYSVLQQHAEANGVDGVDALDTASHTNKSGYHDDSDEDLLE | binds | –
2 | FLAG-sortilin C783A (receptor, also called C783A mutant) SAPDYKDDDDKGEDEECGRVRDFVAKLANNTHQHVFDDLRGSVSLSWVGDSTGVILVLTTFHVPLVIMTFGQSKLYRSEDYGKNFKDITDLINNTFIRTEFGMAIGPENSGKVVLTAEVSGGSRGGRIFRSSDFAKNFVQTDLPFHPLTQMMYSPQNSDYLLALSTENGLWVSKNFGGKWEEIHKAVCLAKWGSDNTIFFTTYANGSCKADLGALELWRTSDLGKSFKTIGVKIYSFGLGGRFLFASVMADKDTTRRIHVSTDQGDTWSMAQLPSVGQEQFYSILAANDDMVFMHVDEPGDTGFGTIFTSDDRGIVYSKSLDRHLYTTTGGETDFTNVTSLRGVYITSVLSEDNSIQTMITFDQGGRWTHLRKPENSECDATAKNKNECSLHIHASYSISQKLNVPMAPLSEPNAVGIVIAHGSVGDAISVMVPDVYISDDGGYSWTKMLEGPHYYTILDSGGIIVAIEHSSRPINVIKFSTDEGQCWQTYTFTRDPIYFTGLASEPGARSMNISIWGFTESFLTSQWVSYTIDFKDILERNCEEKDYTIWLAHSTDPEDYEDGCILGYKEQFLRLRKSSMCQNGRDYVVTKQPSICLCSLEDFLCDFGYYRPENDSKCVEQPELKGHDLEFCLYGREEHLTTNGYRKIPGDKCQGGVNPVREVKDLKKKCTSNFLSPEKQNSKSNSVPIILAIVGLMLVTVVAGVLIVKKYVAGGRFLVHRYSVLQQHAEANGVDGVDALDTASHTNKSGYHDDSDEDLLE | – | binds

From patent US20200330553A1 (BRIGHAM AND WOMEN S HOSPITAL, published 2020)
